Publication PMC6650976, “Experimental Insight into the Structural and Functional Roles of the ‘Black’ and ‘Gray’ Clusters in Recoverin, a Calcium Binding Protein with Four EF-Hand Motifs” (Molecules, 2019)

How the values were obtained:
[1] = target: the molecule itself; assay: cross-linking; Mg2+-loaded proteins: 0.02% glutaric aldehyde, 16 h, 20 °C, protein 1 mg/mL, 20 mM Tricine-KOH pH 7.4, 50 mM KCl, 1 mM DTT, 1 mM MgCl2, 1 mM EGTA; SDS-PAGE, Coomassie, densitometry; self-association
Method in brief: (§1)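 Recombinant human recoverin or its alanine-substituted forms, expressed in E. coli and purified, were freed of metal ions by gel filtration. They were crosslinked at 1.0 mg/mL with 0.02% glutaric aldehyde in 20 mM Tricine-KOH pH 7.4, 50 mM KCl, 1 mM DTT plus EDTA, MgCl2/EGTA or CaCl2, for 16 h at 20 °C. Products (5 µg/lane, 15% resolving SDS-PAGE) were Coomassie-stained, scanned and quantified in Quantity One as percentage per oligomer band.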

[2] = target: the molecule itself; assay: cross-linking; apo-proteins: 0.02% glutaric aldehyde, 16 h, 20 °C, protein 1 mg/mL, 20 mM Tricine-KOH pH 7.4, 50 mM KCl, 1 mM DTT, 1 mM EDTA; SDS-PAGE, Coomassie, densitometry; self-association
Method in brief: as §1

[3] = target: the molecule itself; assay: cross-linking; Ca2+-loaded proteins: 0.02% glutaric aldehyde, 16 h, 20 °C, protein 1 mg/mL, 20 mM Tricine-KOH pH 7.4, 50 mM KCl, 1 mM DTT, 1 mM CaCl2; SDS-PAGE, Coomassie, densitometry; self-association
Method in brief: as §1

Row | Protein | Dimer 50 kDa, % [1] | Monomer 20 kDa, % [1] | Dimer 50 kDa, % [2] | Monomer 20 kDa, % [2] | Dimer 50 kDa, % [3] | Monomer 20 kDa, % [3] | Multimer 100–250 kDa, % [3] | Trimer 70–100 kDa, % [3]
1 | recombinant wild type human recoverin (natural protein, UniProt P35243 1-200, looked up, myristoyl group at the N terminus (degree of myristoylation exceeded 89%), recoverin, human, UniProt P35243; cDNA from Y79 retinoblastoma cells, amplified with primers from the start codon to the stop codon, subcloned into pET-15b(+) by NcoI and XhoI; also called rWT; rWT recoverin; source: E. coli pET15b rec/pBB131/BL21(DE3)RILLC+, purified (phenyl-Sepharose, Toyopearl SuperQ-650M)) MGNSKSGALSKEILEELQLNTKFSEEELCSWYQSFLKDCPTGRITQQQFQSIYAKFFPDTDPKAYAQHVFRSFDSNLDGTLDFKEYVIALHMTTAGKTNQKLEWAFSLYDVDGNGTISKNEVLEIVMAIFKMITPEDVKLLPDDENTPEKRAEKIWKYFGKNDDDKLTEKEFIEGTLANKEILRLIQFEPQKVKEKMKNA | 31.55 ± 0.09% | 68.45 ± 0.09% | 33.1 ± 1.1% | 66.9 ± 1.1% | 30.9 ± 0.4% | 15.5 ± 0.6% | 21.55 ± 0.09% | 32 ± 1.1%
2 | human recoverin mutant F35A (natural protein, UniProt P35243 1-200, looked up, myristoylated (fraction of non-myristoylated forms did not exceed 16%), recoverin, human, UniProt P35243, N-terminal 'black' cluster mutant; Parent construct as m1; source: E. coli, expressed and purified similarly to the rWT protein (phenyl-Sepharose, Toyopearl SuperQ-650M)) MGNSKSGALSKEILEELQLNTKFSEEELCSWYQSALKDCPTGRITQQQFQSIYAKFFPDTDPKAYAQHVFRSFDSNLDGTLDFKEYVIALHMTTAGKTNQKLEWAFSLYDVDGNGTISKNEVLEIVMAIFKMITPEDVKLLPDDENTPEKRAEKIWKYFGKNDDDKLTEKEFIEGTLANKEILRLIQFEPQKVKEKMKNA | 30.9 ± 1.9% | 69.1 ± 1.9% | 37.2 ± 0.5% | 62.8 ± 0.5% | 31.7 ± 0.3% | 37.4 ± 3.6% | 13.2 ± 3.3% | 17.78 ± 0.07%
3 | human recoverin mutant F70A (natural protein, UniProt P35243 1-200, looked up, myristoylated (fraction of non-myristoylated forms did not exceed 16%), recoverin, human, UniProt P35243, N-terminal 'gray' cluster mutant; Parent construct as m1; source: E. coli, expressed and purified similarly to the rWT protein (phenyl-Sepharose, Toyopearl SuperQ-650M)) MGNSKSGALSKEILEELQLNTKFSEEELCSWYQSFLKDCPTGRITQQQFQSIYAKFFPDTDPKAYAQHVARSFDSNLDGTLDFKEYVIALHMTTAGKTNQKLEWAFSLYDVDGNGTISKNEVLEIVMAIFKMITPEDVKLLPDDENTPEKRAEKIWKYFGKNDDDKLTEKEFIEGTLANKEILRLIQFEPQKVKEKMKNA | 26.9 ± 0.9% | 73.1 ± 0.9% | 29.3 ± 1.7% | 70.7 ± 1.7% | 29.3 ± 1.1% | 40.1 ± 1.8% | 11.4 ± 0.2% | 19.1 ± 0.5%
4 | human recoverin mutant F172A (natural protein, UniProt P35243 1-200, looked up, myristoylated (fraction of non-myristoylated forms did not exceed 16%), recoverin, human, UniProt P35243, C-terminal 'black' cluster mutant; Parent construct as m1; source: E. coli, expressed and purified similarly to the rWT protein (phenyl-Sepharose, Toyopearl SuperQ-650M)) MGNSKSGALSKEILEELQLNTKFSEEELCSWYQSFLKDCPTGRITQQQFQSIYAKFFPDTDPKAYAQHVFRSFDSNLDGTLDFKEYVIALHMTTAGKTNQKLEWAFSLYDVDGNGTISKNEVLEIVMAIFKMITPEDVKLLPDDENTPEKRAEKIWKYFGKNDDDKLTEKEAIEGTLANKEILRLIQFEPQKVKEKMKNA | 36.6 ± 0.7% | 63.4 ± 0.7% | 33.6 ± 2% | 66.4 ± 2% | 29.3 ± 0.2% | 22 ± 0.9% | 20 ± 0.3% | 28.8 ± 0.8%
5 | human recoverin mutant F83A (natural protein, UniProt P35243 1-200, looked up, myristoylated (fraction of non-myristoylated forms did not exceed 16%), recoverin, human, UniProt P35243, N-terminal 'black' cluster mutant; Parent construct as m1; source: E. coli, expressed and purified similarly to the rWT protein (phenyl-Sepharose, Toyopearl SuperQ-650M)) MGNSKSGALSKEILEELQLNTKFSEEELCSWYQSFLKDCPTGRITQQQFQSIYAKFFPDTDPKAYAQHVFRSFDSNLDGTLDAKEYVIALHMTTAGKTNQKLEWAFSLYDVDGNGTISKNEVLEIVMAIFKMITPEDVKLLPDDENTPEKRAEKIWKYFGKNDDDKLTEKEFIEGTLANKEILRLIQFEPQKVKEKMKNA | 33.8 ± 1% | 66.2 ± 1% | 35.6 ± 0.8% | 64.4 ± 0.8% | 28.7 ± 0.8% | 38.4 ± 1.4% | 13.2 ± 0.3% | 19.7 ± 0.4%
6 | human recoverin mutant Y86A (natural protein, UniProt P35243 1-200, looked up, myristoylated (fraction of non-myristoylated forms did not exceed 16%), recoverin, human, UniProt P35243, N-terminal 'black' cluster mutant; Parent construct as m1; source: E. coli, expressed and purified similarly to the rWT protein (phenyl-Sepharose, Toyopearl SuperQ-650M)) MGNSKSGALSKEILEELQLNTKFSEEELCSWYQSFLKDCPTGRITQQQFQSIYAKFFPDTDPKAYAQHVFRSFDSNLDGTLDFKEAVIALHMTTAGKTNQKLEWAFSLYDVDGNGTISKNEVLEIVMAIFKMITPEDVKLLPDDENTPEKRAEKIWKYFGKNDDDKLTEKEFIEGTLANKEILRLIQFEPQKVKEKMKNA | 33.9 ± 0.2% | 66.1 ± 0.2% | 30.7 ± 3% | 69.3 ± 3% | 28.5 ± 1.4% | 35.8 ± 2.7% | 14.2 ± 0.6% | 21.5 ± 0.7%
7 | human recoverin mutant W156A (natural protein, UniProt P35243 1-200, looked up, myristoylated (fraction of non-myristoylated forms did not exceed 16%), recoverin, human, UniProt P35243, C-terminal 'gray' cluster mutant; Parent construct as m1; source: E. coli, expressed and purified similarly to the rWT protein (phenyl-Sepharose, Toyopearl SuperQ-650M)) MGNSKSGALSKEILEELQLNTKFSEEELCSWYQSFLKDCPTGRITQQQFQSIYAKFFPDTDPKAYAQHVFRSFDSNLDGTLDFKEYVIALHMTTAGKTNQKLEWAFSLYDVDGNGTISKNEVLEIVMAIFKMITPEDVKLLPDDENTPEKRAEKIAKYFGKNDDDKLTEKEFIEGTLANKEILRLIQFEPQKVKEKMKNA | 36.8 ± 0.2% | 63.2 ± 0.2% | 35.4 ± 0.8% | 64.6 ± 0.8% | 25 ± 1.1% | 20.4 ± 0.7% | 29.8 ± 0.9% | 24.8 ± 1%
8 | human recoverin mutant K119A (natural protein, UniProt P35243 1-200, looked up, myristoylated (fraction of non-myristoylated forms did not exceed 16%), recoverin, human, UniProt P35243, C-terminal 'gray' cluster mutant; Parent construct as m1; source: E. coli, expressed and purified similarly to the rWT protein (phenyl-Sepharose, Toyopearl SuperQ-650M)) MGNSKSGALSKEILEELQLNTKFSEEELCSWYQSFLKDCPTGRITQQQFQSIYAKFFPDTDPKAYAQHVFRSFDSNLDGTLDFKEYVIALHMTTAGKTNQKLEWAFSLYDVDGNGTISANEVLEIVMAIFKMITPEDVKLLPDDENTPEKRAEKIWKYFGKNDDDKLTEKEFIEGTLANKEILRLIQFEPQKVKEKMKNA | 46.4 ± 5% | 53.6 ± 5% | 36.7 ± 0.8% | 63.3 ± 0.8% | 24.4 ± 0.6% | 19.5 ± 0.4% | 31.38 ± 0.05% | 24.7 ± 0.2%
9 | human recoverin mutant E169A (natural protein, UniProt P35243 1-200, looked up, myristoylated (fraction of non-myristoylated forms did not exceed 16%), recoverin, human, UniProt P35243, C-terminal 'black' cluster mutant; Parent construct as m1; source: E. coli, expressed and purified similarly to the rWT protein (phenyl-Sepharose, Toyopearl SuperQ-650M)) MGNSKSGALSKEILEELQLNTKFSEEELCSWYQSFLKDCPTGRITQQQFQSIYAKFFPDTDPKAYAQHVFRSFDSNLDGTLDFKEYVIALHMTTAGKTNQKLEWAFSLYDVDGNGTISKNEVLEIVMAIFKMITPEDVKLLPDDENTPEKRAEKIWKYFGKNDDDKLTAKEFIEGTLANKEILRLIQFEPQKVKEKMKNA | 33.7 ± 0.5% | 66.3 ± 0.5% | 38.9 ± 1.2% | 61.1 ± 1.2% | 27 ± 0.3% | 16.1 ± 1.5% | 27.2 ± 0.9% | 29.6 ± 0.3%
10 | human recoverin mutant F49A (natural protein, UniProt P35243 1-200, looked up, myristoylated (fraction of non-myristoylated forms did not exceed 16%), recoverin, human, UniProt P35243, N-terminal 'gray' cluster mutant; Parent construct as m1; source: E. coli, expressed and purified similarly to the rWT protein (phenyl-Sepharose, Toyopearl SuperQ-650M)) MGNSKSGALSKEILEELQLNTKFSEEELCSWYQSFLKDCPTGRITQQQAQSIYAKFFPDTDPKAYAQHVFRSFDSNLDGTLDFKEYVIALHMTTAGKTNQKLEWAFSLYDVDGNGTISKNEVLEIVMAIFKMITPEDVKLLPDDENTPEKRAEKIWKYFGKNDDDKLTEKEFIEGTLANKEILRLIQFEPQKVKEKMKNA | 32.1 ± 0.5% | 67.9 ± 0.5% | 36.7 ± 1% | 63.3 ± 1% | 25.5 ± 0.5% | 30.6 ± 1.6% | 21.08 ± 0.09% | 22.8 ± 1.3%
11 | human recoverin mutant F106A (natural protein, UniProt P35243 1-200, looked up, myristoylated (fraction of non-myristoylated forms did not exceed 16%), recoverin, human, UniProt P35243, C-terminal 'black' cluster mutant; Parent construct as m1; source: E. coli, expressed and purified similarly to the rWT protein (phenyl-Sepharose, Toyopearl SuperQ-650M)) MGNSKSGALSKEILEELQLNTKFSEEELCSWYQSFLKDCPTGRITQQQFQSIYAKFFPDTDPKAYAQHVFRSFDSNLDGTLDFKEYVIALHMTTAGKTNQKLEWAASLYDVDGNGTISKNEVLEIVMAIFKMITPEDVKLLPDDENTPEKRAEKIWKYFGKNDDDKLTEKEFIEGTLANKEILRLIQFEPQKVKEKMKNA | 35.4 ± 1% | 64.6 ± 1% | 38 ± 0.3% | 62 ± 0.3% | 27.11 ± 0.08% | 17.9 ± 2.1% | 25 ± 0.8% | 30 ± 1.4%
12 | human recoverin mutant V122A (natural protein, UniProt P35243 1-200, looked up, myristoylated (fraction of non-myristoylated forms did not exceed 16%), recoverin, human, UniProt P35243, C-terminal 'gray' cluster mutant; Parent construct as m1; source: E. coli, expressed and purified similarly to the rWT protein (phenyl-Sepharose, Toyopearl SuperQ-650M)) MGNSKSGALSKEILEELQLNTKFSEEELCSWYQSFLKDCPTGRITQQQFQSIYAKFFPDTDPKAYAQHVFRSFDSNLDGTLDFKEYVIALHMTTAGKTNQKLEWAFSLYDVDGNGTISKNEALEIVMAIFKMITPEDVKLLPDDENTPEKRAEKIWKYFGKNDDDKLTEKEFIEGTLANKEILRLIQFEPQKVKEKMKNA | 35.3 ± 0.9% | 64.7 ± 0.9% | 27 ± 1.2% | 73 ± 1.2% | 27.1 ± 1.3% | 15.8 ± 0.2% | 26.7 ± 2.1% | 30.3 ± 0.6%
13 | human recoverin mutant Q46A (natural protein, UniProt P35243 1-200, looked up, myristoylated (fraction of non-myristoylated forms did not exceed 16%), recoverin, human, UniProt P35243, N-terminal 'gray' cluster mutant; Parent construct as m1; source: E. coli, expressed and purified similarly to the rWT protein (phenyl-Sepharose, Toyopearl SuperQ-650M)) MGNSKSGALSKEILEELQLNTKFSEEELCSWYQSFLKDCPTGRITAQQFQSIYAKFFPDTDPKAYAQHVFRSFDSNLDGTLDFKEYVIALHMTTAGKTNQKLEWAFSLYDVDGNGTISKNEVLEIVMAIFKMITPEDVKLLPDDENTPEKRAEKIWKYFGKNDDDKLTEKEFIEGTLANKEILRLIQFEPQKVKEKMKNA | 30.2 ± 0.5% | 69.8 ± 0.5% | 35.1 ± 1.8% | 64.9 ± 1.8% | 27.3 ± 1.5% | 31.9 ± 1.9% | 18.4 ± 0.6% | 22.3 ± 1%
